{"source": "paper doi:10.1101/2020.07.31.231746", "about": "(2020)", "target": "WT ACE2(740)-Fc (human, UniProt Q9BYF1 18-740)", "assay": "BLI", "data": [{"binder": "HCoV-NL63 spike RBD (domain or fragment) QHTDINFTATASFGGSCYVCKPHQVNISLNGNTSVCVRTSHFSIRYIYNRVKSGSPGDSSWHIYLKSGTCPFSFSKLNNFQKFKTICFSTVEVPGSCNFPLEATWHYTSYTIVGALYVTWSEGNSITGVPYPVSGI", "values": [{"measurement": "Kd", "result": 22, "unit": "nM"}]}]}
